Earlier results on one substance are cited in publication PMC8671346.

Data set [1] concerns the target GM-CSF receptor alpha chain (GMRα) (Homo sapiens) (UniProt P15509).
The target in data set [2] is GM-CSF receptor (GMRα/βc) (Homo sapiens) (UniProt P15509).

One may read the Kd as the free concentration of one partner at which half of the binding sites on the other are occupied at equilibrium, for simple one-to-one binding. Consider GM-CSF (from UniProt P04141), for which the Kd was 5 nM in data set [1] and 0.1 nM in data set [2].
